Test results: patent publication US8192734B2, “Compositions and methods for bone strengthening” (Cornell University, priority 2007, dated 2012)

How the values were obtained:
Type in all cases: in vivo, pig
[1] = tested on: pigs fed P-adequate corn-soybean meal basal diet; experiment: Expt 2: metatarsal and femur mineral concentrations (ICP)
Method: After the breaking strength analysis, samples (˜100 to 200 mg) of metatarsals in both experiments and femur in Experiment 2 from the right legs were used for mineral analysis. Cortical bones were isolated after removing attached connective tissue using a stainless steel scalpel and collecting individual shards using needle-nosed pliers with plastic-covered clamps. […] Concentrations of individual elements in the dried bone samples were measured using inductively coupled argon plasma spectrophotometer (ICAP 61E Trace Analyzer, Thermo Jarell Ash corporation, Franklin, Mass.)(31). Samples were digested in a mixture of HNO3 and HClO4 (9:1, vol/vol), and then diluted in 5% HNO3 before analysis.

[2] = tested on: pigs fed P-adequate corn-soybean meal basal diet; experiment: Expt 2: femur geometrical and strength properties
Method: A three-point bending test was conducted on the dissected bones to generate load-deformation curves with an Instron Model 5566 (Norwood, Mass.). Mechanical properties of bones were calculated using formula as previously described^(29). Bone cross sections were cut at the mid-point of loading and used to determine area moment of inertia. Cross sections were submersed for 5 min in a 0.4 mol/L sodium hypochlorite solution to remove periosteum and marrow tissue, and then embedded in blue clay (Play-Doh, Hasbro, Pawtucket, R.I.) to prevent depth-of-field distortions and to enhance contrasts. The embedded sections were scanned with a flat-bed scanner (Epson Perfection Model 3490, Long Beach, Calif.) and analyzed using Image J software (30) to measure the x-y coordinates of bone pixels.

[3] = tested on: pigs fed P-adequate corn-soybean meal basal diet; experiment: Expt 1: metatarsal mineral concentrations (ICP)
[4] = tested on: pigs fed P-adequate corn-soybean meal basal diet; experiment: Expt 2: BMC, BMD and bone area by dual energy X-ray absorptiometry
Method: In Experiment 2, bone mineral content (BMC, g) and bone mineral density (BMD, g/cm^2) of 3rd and 4th metatarsals from the left foot and femur from the left leg of each pig were measured. After being thawed to room temperature, entire bones were placed on a rice bag (to remove background effects) and scanned by dual energy X-ray absorptiometry using the GE Lunar Prodigy instrument (GE Lunar, Prodigy, Madison Wis.) in the small animal scan mode. Values of BMC and BMD were predicted by analysis of scans using Prodigy software (version 10.10.038).

[5] = phytase 2000 U/kg and/or Sr 50 mg/kg, n=6
[6] = length x width by DXA, diets with phytase
[7] = main effect, phytase 2,000 U/kg or Sr 50 mg/kg

B1: Phytase: Escherichia coli AppA2 phytase (OptiPhos, JBS United, Inc.), added to diets at feed mixing; AppA2 is SEQ ID NO: 2 (protein, listed as Escherichia coli)
chain: MKAILIPFLSLLIPLTPQSAFAQSEPELKLESVVIVSRHGVRAPTKATQLMQDVTPDAWPTWPVKLGWLTPRGGELIAYLGHYQRQRLVADGLLAKKGCPQPGQVAIIADVDERTRKTGEAFAAGLAPDCAITVHTQADTSSPDPLFNPLKTGVCQLDNANVTDAILSRAGGSIADFTGHRQTAFRELERVLNFSQLNLCLNREKQDESCSLTQALPSELKVSADNVSLTGAVSLASMLTEIFLLQQAQGMPEPGWGRITDSHQWNTLLSLHNAQFYLLQRTPEVARSRATPLLDLIMAALTPHPPQKQAYGVTLPTSVLFIAGHDTNLANLGGALELNWTLPGQPDNTPPGGELVFERWRRLSDNSQWIQVSLVFQTLQQMRDKTPLSLNTPPGEVKLTLAGCEERNAQGMCSLAGFTQIVNEARIPACSL
- elevation of metatarsal concentration of Sr ([1]; main effect of phytase 2,000 U/kg, P<0.07): 11%
- femur Ca concentration [1, 5]: 300.3 g/kg
- femur Cr concentration [1, 5]: 7.2 mg/kg
- femur Fe concentration [1, 5]: 7.2 mg/kg
- femur Mg concentration [1, 5]: 5.3 g/kg
- femur Mn concentration [1, 5]: 0.8 mg/kg
- femur Na concentration [1, 5]: 8.3 g/kg
- femur P concentration [1, 5]: 178.6 g/kg
- femur S concentration [1, 5]: 1.0 g/kg
- femur Sr concentration [1, 5]: 94.3 mg/kg
- femur Zn concentration [1, 5]: 220.1 mg/kg
- metatarsal Ca concentration [1, 5]: 187.4 g/kg
- metatarsal Cr concentration [1, 5]: 20.5 mg/kg
- metatarsal Fe concentration [1, 5]: 15.3 mg/kg
- metatarsal Mg concentration [1, 5]: 3.5 g/kg
- metatarsal Mn concentration [1, 5]: 2.0 mg/kg
- metatarsal Na concentration [1, 5]: 7.4 g/kg
- metatarsal P concentration [1, 5]: 91.8 g/kg
- metatarsal S concentration [1, 5]: 0.9 g/kg
- metatarsal Sr concentration [1, 5]: 73.5 mg/kg
- metatarsal Zn concentration [1, 5]: 152.3 mg/kg
- enhancement of yield bending moment of femur ([2]; P<0.05): 19%
- larger cross-sectional area of femur vs diets without phytase ([2]; P=0.06): 11%
- femur Cross-sectional area [2, 5]: 165 mm^2
- femur Cross-sectional radius [2, 5]: 9.0 mm
- femur Maximum bending moment [2, 5]: 2263 kg × mm
- femur Maximum stress [2, 5]: 4.0 kg/mm^2
- femur Modulus of elasticity [2, 5]: 49 kg/mm^2
- femur Moment of inertia [2, 5]: 5419 mm^4
- femur Strain [2, 5]: 0.06
- femur Yield bending moment [2, 5]: 1507 kg-mm
- femur Yield stress [2, 5]: 2.7 kg/mm^2
- higher Sr concentration in metatarsals vs BD ([3]; BD + phytase 2,000 U/kg, 6 wk, P<0.05): 7%
- metatarsal Ca concentration ([3]; phytase 2000 U/kg, n=8): 217.3 g/kg
- metatarsal Cr concentration ([3]; phytase 2000 U/kg, n=8): 6.4 mg/kg
- metatarsal Fe concentration ([3]; phytase 2000 U/kg, n=8): 15.7 mg/kg
- metatarsal Mg concentration ([3]; phytase 2000 U/kg, n=8): 3.6 g/kg
- metatarsal Mn concentration ([3]; phytase 2000 U/kg, n=8): 1.1 mg/kg
- metatarsal Na concentration ([3]; phytase 2000 U/kg, n=8): 6.2 g/kg
- metatarsal P concentration ([3]; phytase 2000 U/kg, n=8): 109.2 g/kg
- metatarsal S concentration ([3]; phytase 2000 U/kg, n=8): 1.2 g/kg
- metatarsal Sr concentration ([3]; phytase 2000 U/kg, n=8): 62.8 mg/kg
- metatarsal Zn concentration ([3]; phytase 2000 U/kg, n=8): 176.1 mg/kg
- total bone area of femur [4, 6]: 45.8 ± 0.7 cm²
- total bone area of metatarsal [4, 6]: 9 ± 0.2 cm²
- increase of total bone area of femur ([4]; main effect, P<0.05): 5%
- increase of total bone area of metatarsal ([4]; main effect, P<0.05): 7%
- elevation of BMD of the two bones (metatarsal, femur) [4, 7]: 9 to 11%
- enhancement of BMC in both bones (metatarsal, femur) [4, 7]: 14 to 15%
